Target: T1, Vps3-TAP (full-length Vps3, C-terminal TAP tag) (yeast (genomic locus of BY4741/BY4733 …, UniProt P23643 1-1011))
T1 construct: Vps3, CORVET-specific subunit, yeast, full-length; also called Vps3-Cbp; source: yeast, genomically TAP-tagged, in lysate; overexpressed and TAP-purified from yeast for the GST-Rab pull-down; not shown: TAP, C-terminal, kept
T1 sequence (looked up): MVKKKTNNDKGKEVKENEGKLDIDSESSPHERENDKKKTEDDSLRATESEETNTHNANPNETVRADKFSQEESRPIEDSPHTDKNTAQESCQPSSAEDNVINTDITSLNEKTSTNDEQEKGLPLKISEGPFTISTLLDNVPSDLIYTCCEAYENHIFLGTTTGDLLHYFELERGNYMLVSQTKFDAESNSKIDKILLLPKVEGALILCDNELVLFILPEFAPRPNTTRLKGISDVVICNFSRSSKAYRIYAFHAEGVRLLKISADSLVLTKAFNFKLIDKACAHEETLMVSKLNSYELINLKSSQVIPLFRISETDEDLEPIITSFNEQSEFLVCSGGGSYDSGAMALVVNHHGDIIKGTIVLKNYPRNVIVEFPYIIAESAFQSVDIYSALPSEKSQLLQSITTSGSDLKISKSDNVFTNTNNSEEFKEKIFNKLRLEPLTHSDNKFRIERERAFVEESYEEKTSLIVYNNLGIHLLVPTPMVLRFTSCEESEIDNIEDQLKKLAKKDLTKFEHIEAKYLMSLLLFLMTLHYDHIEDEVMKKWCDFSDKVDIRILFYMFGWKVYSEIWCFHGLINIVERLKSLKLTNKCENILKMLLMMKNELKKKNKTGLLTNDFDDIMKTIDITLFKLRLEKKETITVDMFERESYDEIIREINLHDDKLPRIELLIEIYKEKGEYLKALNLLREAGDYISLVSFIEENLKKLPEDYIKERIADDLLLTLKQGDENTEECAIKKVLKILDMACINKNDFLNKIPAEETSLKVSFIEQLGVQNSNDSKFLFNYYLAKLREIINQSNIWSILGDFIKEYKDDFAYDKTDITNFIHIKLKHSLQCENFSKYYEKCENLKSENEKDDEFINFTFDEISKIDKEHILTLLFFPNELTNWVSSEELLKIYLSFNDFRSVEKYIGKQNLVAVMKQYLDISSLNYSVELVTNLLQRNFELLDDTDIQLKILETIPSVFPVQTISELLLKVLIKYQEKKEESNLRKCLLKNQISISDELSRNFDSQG
Assay: pull-down; 150 µg GST-Vps21 loaded with GTPγS (or GDP) on GSH-Sepharose; 35 µg yeast-purified Vps3-Cbp construct, 1 h at 4°C; 20 mM HEPES/NaOH pH 7.4, 150 mM NaCl, 2 mM MgCl2, 0.1% NP-40, 7 mg/ml BSA; eluted with 20 mM EDTA; blot against Cbp
Settings: both partners purified

B1: GST-Vps21 (natural protein, yeast, UniProt P36017 1-210, looked up)
chain: MNTSVTSIKLVLLGEAAVGKSSIVLRFVSNDFAENKEPTIGAAFLTQRVTINEHTVKFEIWDTAGQERFASLAPMYYRNAQAALVVYDVTKPQSFIKARHWVKELHEQASKDIIIALVGNKIDMLQEGGERKVAREEGEKLAEEKGLLFFETSAKTGENVNDVFLGIGEKIPLKTAEEQNSASNERESNNQRVDLNAANDGTSANSACSC
notes: Vps21, endosomal Rab5-like GTPase of yeast; loaded with GTPγS or GDP before the pull-down; Held on GSH-Sepharose; nucleotide state set by loading with 1 mM GTPγS or GDP; also called Vps21-GTP; immobilized Vps21; source: recombinant
Does B1 bind?
Result: binds
